Source: publication PMC5033319

Assay: recombinant expression in Sf9, not detailed
Details: glycan lost; control: initial domain III preparation, sites intact

EGFR domain III (EGFRD3): N328D and N420D
other: solubility: increases
